Measurements: patent publication US20200010836A1, “Regulation of Gene Expression by Aptamer-Mediated Accessibility of Polyadenylation Signals” (MEIRAGTX, UK II Limited, priority 2017, published 2020)

Tested on: luciferase expression
Assay: Firefly luciferase assay of HEK 293 cells transfected with riboswitch constructs, treated with guanosine or guanine
Format: cell-based
Conditions: for induction fold of luciferase activity (presence / absence of guanosine): 500 μM guanosine vs DMSO solvent control; for basal luciferase expression reduced by % versus control construct pFLuc / basal level luciferase expression, % of the pFLuc control vector: absence of guanine treatment; for basal luciferase expression reduced by % versus control construct pFLuc: given as 'reduced by'; for basal level luciferase expression in the absence of guanine (comparison in words): no guanine, compared with control or parent construct; for induction fold of luciferase activity (presence / absence of guanine): 500 μM guanine vs NaOH solvent control; for fold induction by guanine compared with other constructs: 500 μM guanine
Method: Transfection and aptamer ligand treatment: 3.5×10^4 HEK 293 cells were plated in a 96-well flat bottom plate the day before transfection. Plasmid DNA (500 ng) was added to a tube or a 96-well U-bottom plate. Separately, TransIT-293 reagent (Minis; 1.4 μl) was added to 50 μl opti-mem I media (Life Technologies), and allowed to sit for 5 minutes at room temperature (“RT”). Then, 50 μl of this diluted transfection reagent was added to the DNA, mixed, and incubated at RT for 20 min. Finally, 7 μl of this solution was added to a well of cells in a 96-well plate. Four hours after transfection, the media was aspirated, and new media was added with (i) DMSO (0.5%) or 500 μM guanosine; or (ii) NaOH (2 mM) as solvent control or 500 μM guanine. The induction fold was expressed as the quotient of luciferase activity obtained in the presence of aptamer ligand divided by the value obtained in the absence of the aptamer ligand.
Firefly luciferase assay of cultured cells: Twenty-four hours after media change, plates were removed from the incubator, and equilibrated to RT for several minutes on a lab bench, then aspirated. Glo-lysis buffer (Promega, […]) was added, and the plates allowed to remain at RT for at least 5 minutes. Then, the well contents were mixed by 50 μL trituration, and 20 μL of each sample was mixed with 20 μL of bright-glo reagent (Promega) that had been diluted to 10% in glo-lysis buffer. 96 wells were spaced on an opaque white 384-well plate. Following a 5-min incubation at RT, luminescence was measured using Tecan machine with 500 mSec read time. The luciferase activity was expressed as mean relative light unit (RLU)±S.D.

B1: ATA_Gua_1: luciferase construct, SEQ ID NO: 1; xpt-guanine aptamer linked to 9 bp effector stem-loop (GAAA loop) embedding AATAAA of SV40 early polyA (nucleic acid)
DNA: AAGGCCAAGAAGGGCGGAAAGATCGCCGTGTAAGCCATACCACATTTGTAGAGGTTTTACTTGCTTTAAAAAACCTCCCACACCTCCCCCTGAACCTGAAACATAAAATGAATGCAATTGTTGTTGTTAACTTGTTTATTGCAGCTTATAATGGTTACAAATAAAGCAATAGCATCACAAATTTCTAAAGGTATAATCGCGTGGATATGGCACGCAAGTTTCTACCGGGCACCGTAAATGTCCGACTACCTTTATTTCGAAAGAAATAAAGCATTTTTTTCACTGCATTCTAGTTGTGGTTTGTCCAAACTCATCAATGTATCTTAACGCGT
In the case of B1, the “induction fold of luciferase activity (presence / absence of guanosine)” value is reported as 6.7 fold and the “basal luciferase expression reduced by % versus control construct pFLuc” value is reported as 45%.

B2: DSE_Gua_4: SEQ ID NO: 8; xpt-guanine aptamer linked to 14 bp stem-loop embedding DSE (nucleic acid)
DNA: AAGGCCAAGAAGGGCGGAAAGATCGCCGTGTAAGCCATACCACATTTGTAGAGGTTTTACTTGCTTTAAAAAACCTCCCACACCTCCCCCTGAACCTGAAACATAAAATGAATGCAATTGTTGTTGTTAACTTGTTTATTGCAGCTTATAATGGTTACAAATAAAGCAATAGCATCACAAATTTCACAAATAAAGCATTTTTTTCACTGCATTCTAGTTGTGGTTTGTCCGAAAGGACAAACCACAACATAATCGCGTGGATATGGCACGCAAGTTTCTACCGGGCACCGTAAATGTCCGACTGTTGTGGAAACTCATCAATGTATCTTAACGCGT
B2 was tested, and the “luciferase activity in the absence of aptamer ligand guanosine (comparison in words)” value (DMSO treated, compared among constructs and with pFLuc-SV40) was “lowest” and the “basal level luciferase expression, % of the pFLuc control vector” value was roughly 80%.

B3: DSE_Gua_2: SEQ ID NO: 6; xpt-guanine aptamer linked to 10 bp stem-loop embedding DSE (nucleic acid)
DNA: AAGGCCAAGAAGGGCGGAAAGATCGCCGTGTAAGCCATACCACATTTGTAGAGGTTTTACTTGCTTTAAAAAACCTCCCACACCTCCCCCTGAACCTGAAACATAAAATGAATGCAATTGTTGTTGTTAACTTGTTTATTGCAGCTTATAATGGTTACAAATAAAGCAATAGCATCACAAATTTCACAAATAAAGCATTTTTTTCACTGCATTCTAGTTGTGGTTTGTCCGAAAGGACAAACCAATAATCGCGTGGATATGGCACGCAAGTTTCTACCGGGCACCGTAAATGTCCGACTTGGTTTGAAACTCATCAATGTATCTTAACGCGT
With B3 the “induction fold of luciferase activity (presence / absence of guanosine)” value was 3.7 fold.

B4: SPA_ATA_Gua: SEQ ID NO: 10; xpt-guanine aptamer linked to stem-loop embedding AATAAA of synthetic polyA sequence (nucleic acid)
DNA: AAGGCCAAGAAGGGCGGAAAGATCGCCGTGTAAGGATCCAAGCTTATCGATACCGTCGACCTCGAGGGCCCAGATCTGCGGCAAAAGGTATAATCGCGTGGATATGGCACGCAAGTTTCTACCGGGCACCGTAAATGTCCGACTACCTTTTATTGGAAACAATAAAAGATCTTTATTTTCATTAGATCTGTGTGTTGGTTTTTTGTGTGTCTAGAAATAATTCTTACT
For B4, the “basal level luciferase expression in the absence of guanine (comparison in words)” value was “did not result in reduced luciferase activity”.

B5: mtSPA_ATA_Gua: SEQ ID NO: 13; xpt-guanine aptamer with 9 bp stem embedding AATAAA of mtSPA, 2 GC base pairs added (nucleic acid)
DNA: AAGGCCAAGAAGGGCGGAAAGATCGCCGTGTAAGGATCCAAGCTTATCGATACCGTCGACCTCGAGGGCCCAGATCTGCGGAAAAGGTATAATCGCGTGGATATGGCACGCAAGTTTCTACCGGGCACCGTAAATGTCCGACTACCTTTTATTGCGAAAGCAATAAAATATCTTTATTTTCATTACATCTGTGTGTTGGTTTTTTGTGTGTCTAGAAATAATTCTTACT
B5 was tested, and the “induction fold of luciferase activity (presence / absence of guanine)” value (from here on “induction fold … (presence / absence of guanine)”) was 1.7 fold and the “basal level luciferase expression in the absence of guanine (comparison in words)” value was “decreased”.

B6: SPA_DSE_Gua: SEQ ID NO: 11; xpt-guanine aptamer linked to 3′ end of stem-loop embedding DSE of synthetic polyA (nucleic acid)
DNA: AAGGCCAAGAAGGGCGGAAAGATCGCCGTGTAAGGATCCAAGCTTATCGATACCGTCGACCTCGAGGGCCCAGATCTGCGGCCGCAATAAAAGATCTTTATTTTCATTAGATCTGTGTGTTGGTTTTTTGTGTGTCGAAAGACACACAATATAATCGCGTGGATATGGCACGCAAGTTTCTACCGGGCACCGTAAATGTCCGACTATTGTGTGGAAATAATTCTTACT
With B6 the “induction fold … (presence / absence of guanine)” value was 1.9 fold.

B7: Stbl_ATA_Gua_1: SEQ ID NO: 14; ATA_Gua_1 with GAAA loop replaced by more stable TTCG loop (nucleic acid)
DNA: AAGGCCAAGAAGGGCGGAAAGATCGCCGTGTAAGCCATACCACATTTGTAGAGGTTTTACTTGCTTTAAAAAACCTCCCACACCTCCCCCTGAACCTGAAACATAAAATGAATGCAATTGTTGTTGTTAACTTGTTTATTGCAGCTTATAATGGTTACAAATAAAGCAATAGCATCACAAATTTCTAAAGGTATAATCGCGTGGATATGGCACGCAAGTTTCTACCGGGCACCGTAAATGTCCGACTACCTTTATTTCTTCGGAAATAAAGCATTTTTTTCACTGCATTCTAGTTGTGGTTTGTCCAAACTCATCAATGTATCTTAACGCGT
B7 was tested, and the “fold induction by guanine compared with other constructs” value was “higher induction fold” and the “basal level luciferase expression in the absence of guanine (comparison in words)” value was “lower luciferase activity”.

B8: gaat_ATA_Gua_1: SEQ ID NO: 15; ATA_Gua_1 variant containing GAAT loop (nucleic acid)
DNA: AAGGCCAAGAAGGGCGGAAAGATCGCCGTGTAAGCCATACCACATTTGTAGAGGTTTTACTTGCTTTAAAAAACCTCCCACACCTCCCCCTGAACCTGAAACATAAAATGAATGCAATTGTTGTTGTTAACTTGTTTATTGCAGCTTATAATGGTTACAAATAAAGCAATAGCATCACAAATTTCTAAAGGTATAATCGCGTGGATATGGCACGCAAGTTTCTACCGGGCACCGTAAATGTCCGACTACCTTTATTTCGAATGAAATAAAGCATTTTTTTCACTGCATTCTAGTTGTGGTTTGTCCAAACTCATCAATGTATCTTAACGCGT
In the case of B8, the “fold induction by guanine compared with other constructs” value is reported as “slightly lower fold induction” and the “basal level luciferase expression in the absence of guanine (comparison in words)” value is reported as “higher basal level luciferase”.

B9: ATA_DSE_Gua: SEQ ID NO: 16; pFLuc construct containing both ATA_Gua_1 and DSE_Gua_1 switches (nucleic acid)
DNA: AAGGCCAAGAAGGGCGGAAAGATCGCCGTGTAAGCCATACCACATTTGTAGAGGTTTTACTTGCTTTAAAAAACCTCCCACACCTCCCCCTGAACCTGAAACATAAAATGAATGCAATTGTTGTTGTTAACTTGTTTATTGCAGCTTATAATGGTTACAAATAAAGCAATAGCATCACAAATTTCTAAAGGTATAATCGCGTGGATATGGCACGCAAGTTTCTACCGGGCACCGTAAATGTCCGACTACCTTTATTTCGAAAGAAATAAAGCATTTTTTTCACTGCATTCTAGTTGTGGTTTGTCCGAAAGGACAAACCATAATCGCGTGGATATGGCACGCAAGTTTCTACCGGGCACCGTAAATGTCCGACTGGTTTGTAAACTCATCAATGTATCTTAACGCGT
B9 was tested, and the “induction fold … (presence / absence of guanine)” value was “approximately 2.1 fold”, the “basal level luciferase expression, % of the pFLuc control vector” value was 20% and the “basal level luciferase expression in the absence of guanine (comparison in words)” value was “further decreases the basal level”.

B10: DSE_Gua_1: SEQ ID NO: 5; xpt-guanine aptamer linked to 3′ end of 9 bp stem-loop embedding DSE of SV40 early polyA (nucleic acid)
DNA: AAGGCCAAGAAGGGCGGAAAGATCGCCGTGTAAGCCATACCACATTTGTAGAGGTTTTACTTGCTTTAAAAAACCTCCCACACCTCCCCCTGAACCTGAAACATAAAATGAATGCAATTGTTGTTGTTAACTTGTTTATTGCAGCTTATAATGGTTACAAATAAAGCAATAGCATCACAAATTTCACAAATAAAGCATTTTTTTCACTGCATTCTAGTTGTGGTTTGTCCGAAAGGACAAACCATAATCGCGTGGATATGGCACGCAAGTTTCTACCGGGCACCGTAAATGTCCGACTGGTTTGTAAACTCATCAATGTATCTTAACGCGT
With B10 the “basal luciferase expression reduced by % versus control construct pFLuc” value was 35%.
